The results in this text go back to patent US5830995 (Bristol-Myers Squibb Company, dated 1998).

A value given as a limit tells only on which side of the number the result lay.

B1: bacterially produced AAAT (ligand)
chain: MVVKPPQNKTESENTSDKPKRKKKGGKNGKNRRNRKKKNPCNAEFQNFCIHGECKYIEHLEAVTCKCQQEYFGERCGEKDLLA
B2: bacterially produced AR-SMKT (ligand)
chain: MVVKPPQNKTESENTSDKPKRKKKGGKNGKNRRNRKKKNPCNAEFQNFCIHGECKYIEHLEAVTCKCQQEYFGERCGEKSMKT
B3: recombinant human AR 18 kD purified from CHO/ARGE 2a cells (ligand)
chain: NKTESEKTSDKPKRKKKGGKNGKNRRNRKKKNLCDTEFQNFCIHGKCTFLEQLETVSCQCYPEYFGERCGEKSMKTQSMVD
modifications: N-linked glycosylation at Asn-113

For one test, the target named is T1, human EGF receptor (human, UniProt P00533). The test can be described thus: competition of 125I-EGF binding to NRHER5 membranes.
For “native amphiregulin (AR) purified from TPA-treated MCF-7 cells (ligand)”, the maximum competition turned out to be 85%.

In a further test the target is T1, human EGF receptor. Kind of test: competition of 125I-EGF binding to NRHER5 membranes, 50% inhibition.
The term IC50 denotes the concentration at which inhibition is half-maximal. In the case of “gp35, 35-40 kD soluble high molecular weight form of human AR (ligand)”, the IC50 was greater than 300 nM.

On to “native amphiregulin (AR) purified from TPA-treated MCF-7 cells (ligand)”, for which the IC50 was found to be 100 nM.

The molecule B1 had an IC50 of roughly 1.5 nM.

Take B2: the IC50 was roughly 150 nM.

As for B3, the IC50 is roughly 100 nM.
